According to the DeepSol protein solubility set:

Experiment: soluble on expression in E. coli; label from the status in PepcDB or PDB records

Soluble on expression in E. coli, not soluble:
MGSDKIHHHHHHMQLHLTDDRFNTDPYWTERIKSTFACPPKEVVSMFDQNGYDLTKLEQLYAVANGAETTKHRNSSHITLRQDWFTADDTEYGPHINHAYMFERKGYSGDALAQLEAWSYYRPHFHKLIAMRPKWGLDFSIDYCDREGNVFELLHWEYDGFDHNEVADKKEKMDEFLVNQDWDERARTMLERKNEWHKLGFFEQSEWKTEFFGIEKERFKMVLWK
MGSDKIHHHHHHMQLLHTPAAISISFDDPNLISTAGLVPTMALAEDRLTVPTDKGANPGAKITTLIAGMVAGADSIDDIDALRHGGMHRLFDWIYAPSTLGSFLRAFTFGHVRQLDAVASRFLVGLATQAPALVPVDASTSDYVFIDVDDTIIKVHGHQKQGAGFGYSGIRGLNALLATVTTPESAPVVVAQRLRKGSCGSPRGAGRLIADAVATTRRLPGMEDEKILLRADSAFYGHPSISAAIKAGADVSVTVRMTPNVKKAIAQVPDDAWQTIKYTNAIFDEDTGRWISVAEVAEIPFTAFTSRKKTDHIPGLLVVRRIPELNNKDVDQPGLFDLHRFHAVFTTADPGILDTVAADKTHRQHAIIEQVNADVKASALAHMPSGVFTANSAWLVCAVMAFNLTRTAGVIAAGAMARATTATIRRKLVAVPARIARSARRLILHLPRNWRWETQWSRLCDHGRLPP
MGSDKIHHHHHHMQLTSENYYSQEANKEYMSVSGYKDFAGTYGKMPCEFYGMEKLNGRWEDEKSTALLVGSYVDSYFEGSLDQFKKDNPEIFTQKGELKANFKQAEEIIARIERDEYFMKYMSGQKQVIMTGELFGAKWKIKMDSYIPGVAIVDLKVMASITDLKWVKDIGYLDFVRYWGYDIQGAVYQEIVRQNTGEKLPFFIAGATKQTEPDIRIIHVTDNYLQEALHMVEMNMPRILRVKNGEVEPDRCELCDCCRHNRVLKKPISIMDLTAGI
MGSDKIHHHHHHMQNLHIFGEQKKTDWVIFENLEKVESKTLTEEGSAIRLNSGKYRKLKAISSVDPDVLYSTCKQFLPLNELEVLNKWEPSWGKVREDILNSKVELWNQCMHESACQYAPEVVSTKAYWKSVQQHIWFCTSSSELKEDIRTCFMLDFYITVQKEGRTKQSNLTRSWLSPINVQEEDLQELVLYTANAAMEKLDARPFPSGSYALILGPLAAPGIFHEVVGHGLEADIASIPQSAFHQRLGAMVGCEKVTIIDDPTKEGLPGSYSLDDEGTIAQQTTLIEKGRVVNYLSHLHTGHPTNGHGRVINYQHLPLVRMSNTFLLPGTDDPEEMVSDTEVGLYVKKAINGDVNMITGEFEIHVAEGYLIEKGQITSPILPTTLKGDGQKLLQSIDRVGNDFAIHSEVRGGCGKLGQSPLPVSAGSPTVRVLDWYVKGADR
MGSDKIHHHHHHMQQNTNVDPQEIAKFERMAETWWDLNGEFKPLHLLNPLRLNYIDQTAGGIFGKKVLDVGCGGGILSESMARIGAIVDGLDMGEEPLEVARLHALETGVSINYVKNTAEAHREDHREYYDVVTCMEMLEHVPDPQSVIQACCDMVKPGGFVFFSTINRNVRSFVETIIGAEYLLKMLPIGTHDHNKFIKPSELIDLVDNTELICKDALGITYNPLTGIFKYTSKVDVNYMIATQKVD
MGSDKIHHHHHHMQQVFFQETEFLNSVIDYDHKVETENLCLDIAYGTDKNFLFGCGISIASILKYNEGSRLCFHIFTDYFGDDDRKYFDALALQYKTRIKIYLINGDRLRSLPSTKNWTHAIYFRFVIADYFINKAPKVLYLDADIICQGTIEPLINFSFPDDKVAMVVTEGQADWWEKRAHSLGVAGIAKGYFNSGFLLINTAQWAAQQVSARAIAMLNEPEIIKKITHPDQDVLNMLLADKLIFADIKYNTQFSLNYQLKESFINPVTNDTIFIHYIGPTKPWHDWAWDYPVSQAFMEAKNASPWKNTALLKPNNSNQLRYSAKHMLKKHRYLKGFSNYLFYFIEKIKH
MGSDKIHHHHHHMQVVYHLGAPCTDADQLIMSLLKNRLRLAQAGIFVPVPGRYRAVIRDTARALKGQPAGKEVQEALLDAIVDDAQVDRLVLSDPRFVCINRLVVQGAQIWPMIERAATGLRALFPEAHVEFFIGMRDPATLIPALFKASRFSDFAEFTENMQPHAVAWSETLRRLQLAHPDCRITAWCNEDTPLLWGEILRELAGVGPEGELDGINDLAVSIMEEEGLKRMGQWFGQNPPKTEAQRRRALTAFLERYAKAGEIEETLNLPGWDEALMAEMSQSYDQDMEVIARLPGVTLLVP
MGSDKIHHHHHHMRDMVPRLTKSYEASSQPIASIRSSVLSVVVGALEATGVSTDHLLAQHGLSRLTLDDPYNPVSLKNYVAFFEDAARMSSQPMLGIRLGNAIKAEDLGPVGVLYTMMQTLRSAIVRFSHFFPALQGSTKLGLSVRGDATWLEYQIEDQTIWPRRQDTEFTLALICALTRSRLGRGWAPEEIHFEHSAPTNGRDMAHFFGAVIRFDQPINRMLIRTEDLDLPFASANPAAIAIIEQHLNDLIGDGVVPAFEDAVLQAIMRCMKRGEVTLELVASRLGIGPRTLQRRLAATGRTFREIVQQQRHGTATVLLKDERIALGVVAGNLGYADTATMSRAFKTWTGQSPRAYSKKNRREAR
MGSDKIHHHHHHMRDSVFKLSYFLSANEKFHIARVNITSSQDLSLHSHDYAEILWVEKGTGIHHVNGHQFRLSPGDLIMVRPKDRHTFSSSGKGIVIVNVAFPVETLDYFRQRYFEWSNLYFWTTGMFPFQMRLSRDIVKRLSSRAEEAMKYGRSNIQLDSLLLFIFRQITANEKVEDSSEIPVWLFNAIQKFNSPEFFIQGIAGFVTLCDRNIDYVNRIVKLHFHKSLTDLINEFKMQYATTQLSITSMPIKEICTNCGFRNLGHFYKIFRSVYNQTPYEYRRINQLIV
MGSDKIHHHHHHMREDIVVIGGYGQVGRAICRLLARRYAGRVYAAGRNFEKANRFSLETDGEVQPLQVDIHQPKKAFEALNQPKVVIVCIDQDHTEFARLCAKNGIDYLDITANGKFLKELGGLNRGAVKHTGVISVGLAPGITNLLVEQAVRMFEQVHQVDISILLGLGDEHGVGAMEWTFQQINQSFDVMVQNDWRQVKSFTDRKQVSFGKAIGNHSVYRFPFSDQQTLARTLHLPTVSTRLCFDSRLVTAVVATMRRLHITKLLSLPAVRKVLTTLLNVFPYGSEQYGVRVEVKGVRKDEKEEVYSLFTGENEALMTAHVASAVAFALYEHPCPKGVFHIEELFELVFIDQHISLTLKGTEFSYPLPTPKQFVQNETSICSQNHS
MGSDKIHHHHHHMREKLFWILKKYGVSDHIAKAFLEIPREEFLTKSYPLSYVYEDIVLVSYDDGEEYSTSSQPSLMALFMEWVGLDKGMRVLEIGGGTGYNAAVMSRVVGEKGLVVSVEYSRKICEIAKRNVERLGIENVIFVCGDGYYGVPEFSPYDVIFVTVGVDEVPETWFTQLKEGGRVIVPINLKLSRRQPAFLFKKKDPYLVGNYKLETRFITAGGNLGNLLERNRKLLREFPFNREILLVRSHIFVELVDLLTRRLTEIDGTFYYAGPNGVVEFLDDRMRIYGDAPEIENLLTQWESCGYRSFEYLMLHVGYNAFSHISCSI
MGSDKIHHHHHHMRFDLIDLRLFLHILETGSITHGAARANMSLPSASARLRGMEDALGMPLLERGRRGVESTPTGDTLAHHARLVLGQIERMQGELGEHQEGRKACIRLWTNTAAITEFLPAAIGLFLRDHPNVQIDLKERQSSETVKAVLSGAAEIGIISDAVEHGALQTFPFAIDKLVLVTSRDDALATCRRTTLAEVADREFIGLSADSALQAYLGERALLAGQPLSFRTHVRTFDAVCCMVDQGAGVGIVPATAAKRYRGTPGIRTIELTDSWATRQLLICMRDLNAMARPEKALVRHLAGI
MGSDKIHHHHHHMRIGVAGVGKLGEFHTNLLKQIAAEASDVEFSGVFDLNPERLQEIGKKYGVACFSTLEELAASCDAAVIATTTSSHYAIARQLLEARLHLFIEKPITATLEEADKLIRIEQEKGLTIQVGHIERFNPALLAVEPYIGEPMYIQAERLSGFSRRVTDVSVVLDLMIHDIDLVLSLIKSDIRSIAASGVKVFSNELDMATARIEFENGAIANVTASRLSRSKLRKMRFFTRNPKSYASLDFTSGKSEVFRLVPPDQLSSKNPIKNFATKKILEQFGEIQESLKEMALDYVSPDVPKINALKEELEQFIDAIRKGKPAKVTSEEGRRALMVAGKITDEIRNNTADLD
MGSDKIHHHHHHMRILALVPGGIGDQILFFPTVADLKKYYPQAQIDVVVEPRAVGAYRVCAEVDQVFPFDFKDRNSLADWGNLLGSIREREYEAVLSLGQRSLVGLFLWLTGIPKRVGYAGRGKIFLTDAVPLNREQYAGALYHDLLQGFGINTPCPNPKLTLARQDLDWATAEQQRLGLAGQGYLVLHGGSSTLAKLKGLQKVYPVEKWAIVLRSIREQRPSLPFVVVQGPDDAEFVAELRKSNLDFQVVQPPDIGKLAAIIAGADLMLCTDSAPMHLAVASGTRTIALFGPFEPAKLLPADDRFIGIKAQGVDVATIPPQEIIDRLFGR
MGSDKIHHHHHHMRILIRADGGRDIGMGHIMRTLTLARELNKYFEVIYVCKTENEDRKTSVNGKYAKGIHKILSSGFKVKIVRENNMVEDLYEIKGDILITDSYDVNEEYFKKTSEMFHKTIYIDDMCLYDFKDVDMIINQNINADNLKYDAAGNKSLLLGCRYVMLRDEFKDLGAKIIRRKVRDVMITTGGADPFLLTLKLLYYLKQENYNFHVVVGSSFDDIYVEKLKTYEELKNINFYYNANMKELMKKCDACISAAGSTLYELCSVGVPSLSITVAENQSKAAEKFDALKIIKNLGWHNELTREKVLEEINSLSNDYNRRKNVSMTSQSIIDGMGTQRIVEKILDMV
MGSDKIHHHHHHMRITNTLTGKKEEFVPIQPGVVRMYVCGPTVYDLIHVGNARPALVFDVFRRYLEYRGYRVIMVQNFTDIDDKIINKANQLGVDYKTVADTFIAEYWRDAHALGIRPANFHPRTTDFVEDIVEIIEKLVEKGFAYQTETGVYFDVRKFEKYGELSKKKIEDLIAGARVEVDETKKSPLDFSLWKKAKPGEPCWKSPWGEGRPGWHIECTVMSVKILGESFDIHAGGEDLVFPHHENEKAQAEALTGKVFARYWMHNGMVRFLGDKMSKSTGNIFTVREAVKRYGRDGLRYMILSKHYRSPMDFSEELLQDYSRAVKRVWEILGRYEKSGDIGIPKRNAVYEEYVNRFVEALDDDFNTPVAVSLIFELARNLSKAMDDNDREDALLYYHLIRREFGPVLGLFDLNEEKKEVSSEELLKLLIEVRDVLRKEKRYDLSDRIRDRLREIGIILKDTPSGTEYTVE
MGSDKIHHHHHHMRITSIFLFTIIIFGGLSCSNDDSLIHNKTKGILEKYPEPTVTITAHNHIPFLAKNILEEKAITKSVNIISDIAWANGFGRTITARSDEMVIPDNMNRYIYPGSILEASSIAETRFTPIPVKNNPVHVSVSFPAKKVGGTIKEPSLLNIRQFVMDLMQQNNIGKQSATLSFDVQKFVSYDELKMTFGSNENTGLLFWGTSSAQYQNKYRIIRSSGLCIKFIQKYFTLDMDIPSNGLISGTIPGGYSPVYVSSIAYGRIGILTLETNYDYEKANKLVKETFNSLFINKNNTLTKEQEAFFNSAEMKVFIAGGSGVTGVKTIGGIKEFTNYITEGGEFSASSPGKPIFCSFANYSDDSPYRINFKIDIDSDPVYARLEYDITKDVSGGNVKSWYTDANVYLRFYADKACSIKTIAQNYIGFNINRLILQQYVGPNYSVSKAREVKLDQNLTFHNQTKGIEYPIAYGHRMTETIGTTYLDRGNWTNDHFYLRAGKFYQVRPPINMKYTCFIDYHNQNEYDCSDFE
MGSDKIHHHHHHMRIVAVTDIHGNMASTVALANILKKIEAELLLIAGDITHFSGGEIAKQILEPLLKLGVRVLAVMGNCDGKDVPKVLDELGINVHNARVEVKKVGVVGFGGSSVTPFSTIWEFSEEEIYSSLKRNYRSGDIVLTHAPPYRTRIDKTFSGIHAGSKGLRKFIEEEQPPICICGHIHEARGIDKIGETLVVNPGPLSRRYYAVIDSETWEVKLERL
